In the nanobody polyreactivity screen of Harvey et al. (2022):

Test: yeast display, Sf9 membrane polyspecificity reagent, FACS + sequencing; frameworks hold sequencing errors
Method in brief: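 Synthetic nanobody libraries on Saccharomyces cerevisiae BJ5465 were galactose-induced for 36–48 hours, stained 1 hour at 4 °C with 10% biotinylated, detergent-solubilized Sf9 membrane reagent and enriched on streptavidin microbeads. FACS then separated cells into low and high (top ~1%) gates by anti-HA (expression) and streptavidin (reagent binding) fluorescence. Genes were colony-PCR amplified, MiSeq 2 × 250 sequenced and CDR-length filtered. A clone's polyreactivity label is that of its gate of origin.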

Row | Sequence | polyreactivity (PSR sort gate)
1 | QVQLVESGGGIVQAGGSLRLSCAASGITFDLYAMGWSRQAPGKERELVAASTYYADSVKWRFTISRDYAKNTVYLQMNSLKPEDTAVYYCITREPVTSDYWGLGTQVTVSS | high polyreactivity
2 | QVQLVESGGGIVQAGGSLRLSCAASGITSYFNAMGWYRQAPGKERELVAITWNGGSTYYADSVKGRFTITRDNAKNTVYLQMNSLKPEDTAVYYCAARYRRYNRKYDYWGQGTQVTVSS | high polyreactivity
3 | QVQLVESGGGIVQAGGSLRLSCAASGLIFYYYALGWYRQAPGKERQLVAAITSGSTTYADSVKGRFTISRDNAKNTVYLQMNSLKPEDTAVYYCNKDQDYKLTTTFDYDYWGQGTQVTVSS | low polyreactivity
4 | QVQLVESGGGIVQAGGSLRLSCAASGRIFANYAKGWYRQAPGKERELVAAISRSGGSTSYADSVKGRFTISRDNAKYTVYLQMNSLKPEETAVSYCAVVSPRQSYYYWGQGTQVTVSS | high polyreactivity
5 | QVQLVESGGGIVQAGGSLRLSCAASGRIFDNYVLGWYRQAPGKERELVAAISSGGGTYYADSVKGRFTISRDNAKNTVYLQMNSLKPEDTAVYYCAKRRVYDRSFGRYDYWGQGTQVTVSS | low polyreactivity
6 | QVQLVESGGGIVQAGGSLRLSCAASGRIFGYYAMGWYRQARGKERELVAAITWSGGRTYYADSVKGRFTISRDNAKNTVYLQMNSLKPDDTAVYYCAAVVQGPNRKYNYWGQGTQVTVSS | high polyreactivity
7 | QVQLVESGGGIVQAGGSLRLSCAASGRIFLRNAMGWYRQAPGYEREFVAAMRYSGGRTYYADSVKGRFTISRDNAKNTVYLQMISLNPEDTAVYYCAAEGSSRSSYRKYDYWGQGSQVTVSS | high polyreactivity
8 | QVQLVESGGGIVQAGGSLRLSCAASGRIFRINGMGWYRQAPGKEREFVAAITSGGGTYYADSVKGRFTISRDNAKNTVYLQMNSLKAEDTAVFYCAVRRRYGDDYWGHGTQVTVSS | high polyreactivity
9 | QVQLVESGGGIVQAGGSLRLSCAASGRIFRIYAMGWYRQAPGKEWELVASISWGGASTYYADSVKGRFTISRDNAKNPVYLQMNSLKPEDTAVYDCAAVGYQGQYDYRSFGSWGQGTQVTVSS | high polyreactivity
10 | QVQLVESGGGIVQAGGSLRLSCAASGRIFSSYAMGWYRQAPGKERELVAAITRGGSTYYADSVKGRFTISRDNANNTVHLQMNSLKPEDPAVYYCAARPPYRYWFWGNEDYWGQGTQVTVSS | high polyreactivity
11 | QVQLVESGGGIVQAGGSLRLSCAASGRIFVLYAMGSYRQAPGKERELVADITVSGGRTYYADSVKGRFTISRDNAKYTVYLQMNSLKPEDTAVYYCAASPRSYYWRYYQEDYWGQGTQVTVSS | high polyreactivity
12 | QVQLVESGGGIVQAGGSLRLSCAASGRIFWWYAMGMYRQAPGKERELVAVIDDSGGITYYADSVKGRFTISRDNAKNTVYLQMNSLKPEDTAVYYCARNVNAQKVLGGFDSWGQGTQVTVSS | low polyreactivity
13 | QVQLVESGGGIVQAGGSLRLSCAASGRIFYINAMGWYRQSPGKERELVAAITGSGGRTYYADSVKGRFTISRDNAKNTVYLHINSLKPEDTAVYYCAAQKKHYSYSYWYDSLGQGTQVTVSS | high polyreactivity
14 | QVQLVESGGGIVQAGGSLRLSCAASGRIFYYNAMGWYRQAPGKERELVAAISTRGTSTYYAESVKGRFTISRDNAKNTVYLQMNSLKPEDTAVYYCNRASGNWQSYLSYDYWGQGTQVTVSS | low polyreactivity
15 | QVQLVESGGGIVQAGGSLRLSCAASGRLFYYYAMGWDRQAPGTERELVAVISRGVITYYADSVKGRFTISRDTAKNTVYLQMNSLKPEDTAVYYCAVSYPHYIYSYGYWGQGTQVTVSS | high polyreactivity
16 | QVQLVESGGGIVQAGGSLRLSCAASGRTFWGYAMGWYRQAPGKERELVASISGRGGSTYYADSVKERFTISRDTAKNTVYLQINSLQPEDTAVYYCAATYFSVKWYYYWGEGTQVTVSS | high polyreactivity
17 | QVQLVESGGGIVQAGGSLRLSCAASGRTLGGYAMGWYRQAPGKERELVAAITRRGGSTYYADSVKGRFTISRDNAKNTVYLQMNSLKPEDTAVYYCAARWYARSLTRFNYWGQGTQVTVSS | high polyreactivity
18 | QVQLVESGGGIVQAGGSLRLSCAASGRTSVINAMGWYRQAPGKERELVASISRGGSTNYADSVKGRFTISRDNAKNTVYLQMNSLKPEDTAVYYCNADEQNDSFIWSYTIIYDYWGQGTQVTVSS | low polyreactivity
19 | QVQLVESGGGIVQAGGSLRLSCAASGSIFADYAMGWYRQAPGKERELVAVISRRGGTTYYADSVKGRFTISRDNAKNSVYLQMNSLKPEDTAVYYCAARRSFNEYDYWGQGTQVTVSS | high polyreactivity
20 | QVQLVESGGGIVQAGGSLRLSCAASGSIFQYNAMGWYRQAPGKERELVAAITRGDSTYYADSVKGRFTISRDNAKNTVYLQMNSLKPEDTAVYYCAARPRGKYDYWGQGTQVTVSS | high polyreactivity
21 | QVQLVESGGGIVQAGGSLRLSCAASGSIFSYYAMGWYRMAPGKERELVAGITGGGSTDYADSLKGRFTISRDNAKNTVYLQMNSLKPEDTAVYYCAKRYVPWRPYDYWGKGTQVTVSS | low polyreactivity
22 | QVQLVESGGGIVQAGGSLRLSCAASGSIFVENAMGWTRQAPGKERELVAAISSDASTNYADSVKGRFTISRDNAKNTVFLQRNSLKPEDTAVYYCAAGYNQHGQYDYWGQGTQVTVSS | low polyreactivity

Row | Sequence | polyreactivity (PSR sort gate)
23 | QVQLVESGGGIVQAGGSLRLSCAASGSIFVHNDLGWYRQAPGKERELVARINTGGGTNYADSVKGRFTISRDNAKKTVYLQMNSLKPEDTAVYYCATDGDRDDHYFTDPEFDYWGQGTQVTVSS | low polyreactivity
24 | QVQLVESGGGIVQAGGSLRLSCAASGSIFYPYVMGWYRQAPGKERELVAAITTSVGSTYYADSVKGRFTISRDHAKNTVYLQMNSLKPEDTAVYYCAAKYFGSRRPGRYNYWGQGTQVTVSS | high polyreactivity
25 | QVQLVESGGGIVQAGGSLRLSCAASGSIFYQYAMGWYRQAPGKERELVAAISRSGGSTYYADSVKGRFTISRDNAKNNVYLQMNSLKPVDTAVYYCAARAVRAAYDYWGQGTQVTVSS | low polyreactivity
26 | QVQLVESGGGIVQAGGSLRLSCAASGSISFLYTMGWYRQAPGKERELVAAITGSTASTYYADSVKGRFTISRDNAKNTVYLQMNSLKPEDTAVYYCAAYWYAEGYWVSRDYWGQGTQVTVSS | low polyreactivity
27 | QVQLVESGGGIVQAGGSLRLSCAASGSSFQTNAMGWYRLAPGKERELVATINRSGDSTYYADSVKGRFTISRDNAKNTVYLQMNSLKPEDTAVYYCNKDWHSQDFSAYNSYDYWGQGTQVTVSS | low polyreactivity
28 | QVQLVESGGGIVQAGGSLRLSCAASGSSINLYAMGWYRQAPGKERELVAAINDDAGSTYYADSVKGRFTISRDNAKNTVYLQMNSLKPEDTAVYYCNAGSRSTEYDYWGQGTQVTVSS | low polyreactivity
29 | QVQLVESGGGIVQAGGSLRLSCAASGSTFATYTMGWYRQAPGKERELVAAISSRGGSTYYADSVKGRFTISRDNAKNTVYLQMNSLKPEDTAVYYCNARRSTDPARYYWGQGSQVTVSS | high polyreactivity
30 | QVQLVESGGGIVQAGGSLRLSCAASGSTFESNAMGSYRQAPGKERELVAAISRGGNTYYADSVKGRFTISRDNAKNTVYLQMNSLKPEDTAVYYCNVDRGNPVQPSEYWGQGTQVTVSS | low polyreactivity
31 | QVQLVESGGGIVQAGGSLRLSCAASGSTFFIYAMGWYRQAPGKERELVAAISGSGGTTYYADSVKGRFTISRDNAKNTVYLQMNSLKPEDTAVYYCAARTFSAFWRGGYDYWGQGTQVTVSS | low polyreactivity
32 | QVQLVESGGGIVQAGGSLRLSCAASGSTFGYYAMGWYRQAPGKERELVAAISWRGGSTYYADSVKGRFTISRDNAKNTVYLQMNSLKPEDTAVYYCAAQRGGPFPRVVDLYDYWGQGTQVTVSS | low polyreactivity
33 | QVQLVESGGGIVQAGGSLRLSCAASGSTFLYYAMGWYRQAPGKERELVAAISSGGSTYYADSVKGRFTISRDNAKNTVYLQMNSLKPEDTAVYYCAAVRPGYVAYYYWGQGTQVTVSS | high polyreactivity
34 | QVQLVESGGGIVQAGGSLRLSCAASGSTFNWNAMGWYRQAPGKEREFVAAISKSGGTTYYADSVKGRFTISRDNAKNTVYLQMNSLKPEDTAVYYCAAVRRYHSYPDGGYWGQGTQVTVSS | high polyreactivity
35 | QVQLVESGGGIVQAGGSLRLSCAASGSTFVSNAMGWYRQAPGKERELVAAITTGGSTYYADSVKGRFTISRDNAKNTVYLQMNSLKPEDTAVYYCAADSVLNWFWGQGTQVTVSS | low polyreactivity
36 | QVQLVESGGGIVQAGGSLRLSCAASGSTFVVYAMVWYRQEPGKERELVAAITSGGSTYYADSVKGRFTISRDNAKNTVFLQMNSLKPDDSAVYYCNKDDFSNELYWGQGTDVTVSS | low polyreactivity
37 | QVQLVESGGGIVQAGGSLRLSCAASGSTLDYHDMGWYRQAPGKEREFVAAIRSNDGSTYYADSVKGRFTISLDNAKNTVYLQMNSLKPEDTAVYYCNKDVWDGYDWPEFDYWGQGTQVTVSS | low polyreactivity
38 | QVQLVESGGGIVQAGGSLRLSCAASGSTSSSDDMGWYRQAPGQERELVADITSGGRTYYADSVKGRFTISRDNAKNTVYLQMNSLKPEATAVYYCAADTIEHYSLVTPTQGKFDSWGQGTQVTVSS | low polyreactivity
39 | QVQLVESGGGIVQAGGSLRLSCAASGYTISYYAMGCYRQAPGKERELVASISWRGGGTYYADSVKGRFTISRDNAKNTVYLQMNSLKAEDTAVYYCNIDYYATPYGYWGQGTQVTVSS | low polyreactivity
40 | QVQLVESGGGIVQAGGSLRLSCAATGFTFVYYAMGWYRQEPGKERELVAAISSRGGSTNYADSVKGRFTISRDNAKKTVYLQMNSLKPEDTAVYYCAARANTKKPYYYWGQGTQVTVSS | high polyreactivity
41 | QVQLVESGGGIVQAGGSLRLSCADSGFISVTYAMGWYRPAPGKERELDAAITYSGGSTYYADSVKGRYTISRDNAKNTVYLQMNSLKPEDTAVYYCAKKRRVVVLSVQGDYWGQGTQVTVSS | low polyreactivity
42 | QVQLVESGGGIVQAGGSLRLSCPASGIIFYLNPMGWSRQAPGKERELVAAITRGGSTYYADSVKGRFTISRDNEKNTVYLQMNSLKPEDTAVYYWAAKHGPGYRRWYDYWGQGTQVTVSS | high polyreactivity
43 | QVQLVESGGGIVQAGGSLRLSFAASGSTFNSNVMGWYRQAPGKERELVAAISRSGGNTYYADSVKGRFTISRDNAKNTVYLLMNSLKPEDTAVYYCNKAGRYPYDYWGQGTQVTVSS | high polyreactivity
